# T1: β-catenin (UniProt P35222 2-781)
# T1 construct: Endogenous protein in A549 cells; also called beta-catenin
# T1 sequence (looked up): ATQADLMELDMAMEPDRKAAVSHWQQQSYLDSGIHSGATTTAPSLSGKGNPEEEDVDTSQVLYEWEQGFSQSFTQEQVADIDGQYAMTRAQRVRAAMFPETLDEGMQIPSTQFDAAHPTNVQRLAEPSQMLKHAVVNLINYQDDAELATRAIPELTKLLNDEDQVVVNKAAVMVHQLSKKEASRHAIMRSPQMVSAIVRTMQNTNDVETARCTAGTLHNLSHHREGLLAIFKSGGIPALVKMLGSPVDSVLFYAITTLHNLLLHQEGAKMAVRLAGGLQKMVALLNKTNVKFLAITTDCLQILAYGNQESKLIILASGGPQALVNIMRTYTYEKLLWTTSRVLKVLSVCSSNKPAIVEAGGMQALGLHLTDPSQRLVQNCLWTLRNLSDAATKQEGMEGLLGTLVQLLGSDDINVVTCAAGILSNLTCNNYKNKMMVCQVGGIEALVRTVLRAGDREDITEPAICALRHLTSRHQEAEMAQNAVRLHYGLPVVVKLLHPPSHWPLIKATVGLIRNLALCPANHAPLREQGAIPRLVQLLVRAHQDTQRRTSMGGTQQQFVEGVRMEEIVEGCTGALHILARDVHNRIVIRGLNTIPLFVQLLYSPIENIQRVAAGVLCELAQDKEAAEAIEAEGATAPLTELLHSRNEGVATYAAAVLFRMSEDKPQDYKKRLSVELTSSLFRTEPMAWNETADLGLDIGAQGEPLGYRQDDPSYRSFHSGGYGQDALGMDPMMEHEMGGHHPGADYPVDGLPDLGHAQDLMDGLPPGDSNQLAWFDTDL
# B1: E-cadherin (other, UniProt P12830 155-882, looked up)
# chain: DWVIPPISCPENEKGPFPKNLVQIKSNKDKEGKVFYSITGQGADTPPVGVFIIERETGWLKVTEPLDRERIATYTLFSHAVSSNGNAVEDPMEILITVTDQNDNKPEFTQEVFKGSVMEGALPGTSVMEVTATDADDDVNTYNAAIAYTILSQDPELPDKNMFTINRNTGVISVVTTGLDRESFPTYTLVVQAADLQGEGLSTTATAVITVTDTNDNPPIFNPTTYKGQVPENEANVVITTLKVTDADAPNTPAWEAVYTILNDDGGQFVVTTNPVNNDGILKTAKGLDFEAKQQYILHVAVTNVVPFEVSLTTSTATVTVDVLDVNEAPIFVPPEKRVEVSEDFGVGQEITSYTAQEPDTFMEQKITYRIWRDTANWLEINPDTGAISTRAELDREDFEHVKNSTYTALIIATDNGSPVATGTGTLLLILSDVNDNAPIPEPRTIFFCERNPKPQVINIIDADLPPNTSPFTAELTHGASANWTIQYNDPTQESIILKPKMALEVGDYKINLKLMDNQNKDQVTTLEVSVCDCEGAAGVCRKAQPVEAGLQIPAILGILGGILALLILILLLLLFLRRRAVVKEPLLPPEDDTRDNVYYYDEEGGGEEDQDFDLSQLHRGLDARPEVTRNDVAPTLMSVPRYLPRPANPDEIGNFIDENLKAADTDPTAPPYDSLLVFDYEGSGSEAASLSSLNSSESDKDQDYDYLNEWGNRFKKLADMYGGGEDD
# notes: whole, on cells; Endogenous protein in A549 cells
# Target: T1, β-catenin
# Assay: in situ proximity-based RCA assay on fixed A549 cells with anti-E-cadherin and anti-β-catenin primary antibodies and oligonucleotide-conjugated secondary antibodies
# Description: A proximity-based detection assay was performed to detect a protein-protein complex in situ. Frozen A549 cells fixed on a microscopy slide were thawed and incubated with PBS+0.2% Triton X-100 for 5 minutes to permeabilise the cell membranes. Slides were incubated with 30 μl Olink blocking buffer for 60 minutes at 37° C. in a humidity chamber. Primary antibodies were diluted in Olink Antibody diluent (mouse IgG anti E-cadherin 1:100, rabbit IgG anti β-catenin 1:200). Blocking buffer was removed and 15 μl of each antibody solution was added and incubated overnight at 4° C. Slides were washed, and incubated with 30 μl 20 nM secondary antibodies conjugated to oligonucleotides (nucleic acid probe and activator molecule) for 60 minutes at 37° C. in a humidity chamber. Following incubation, slides were washed and incubated with 30 μl RCA mix (Phi29 buffer, BSA, PolyA, dNTPs, UNG, Hoechst, Texas Red labelled detection oligonucleotide and Phi29 polymerase) for 100 minutes at 37° C. in a humidity chamber. Slides were washed at room temperature and allowed to try, before being contacted with SlowFade mounting media and a coverslip applied and incubated for 15 minutes in the dark. All samples were analysed at the same magnification and exposure time (FIG. 18). […]
binder,measurement,value
B1,binding result,binds

# Reference: patent US20190203279A1 (NAVINCI DIAGNOSTICS, published 2019)
